The test system of assay [1] is DSS model of inflammatory bowel disease. In words: DSS model: gross pathology score. The assay is classed as in vivo, C57BL/6 mice. As to conditions: FIG. 9. As to the method: Eight-week old C57BL/6 mice were housed 5 animals were cage and given food and water ad libitum for 7 days. Following the 7-day acclimation period, treatments were initiated concurrently with addition of 2.5% DSS to the drinking water. […] The mice were treated with 2.5% dextran sodium sulfate (DSS) in their drinking water for 6 days. Treatments were continued with SG-14 or […]-GLP2 twice a day (b.i.d.) in the morning and evening (every 8 and 16 hr) with i.p. injections at 50 nmoles/kg. Fresh 2.5% DSS drinking water was prepared every 2 days. Gross pathology observations were made in mice included in the concurrent DSS model performed in this Example. […] The scoring system used was: (0)=no gross pathology, (1)=streaks of blood visible in feces, (2)=completely bloody fecal pellets, (3) bloody fecal material visible in cecum, (4) bloody fecal material in cecum and loose stool, (5)=rectal bleeding. The graph in FIG. 9 represents data pooled from the single experiment (n=10).

The test system is the same in assay [2]. The assay is described as follows: DSS model: colonic tissue histopathology score. The assay is classed as in vivo, C57BL/6 mice. The note with it: FIG. 12A. As to the method:
Eight-week old C57BL/6 mice were housed 5 animals were cage and given food and water ad libitum for 7 days. Following the 7-day acclimation period, treatments were initiated concurrently with addition of 2.5% DSS to the drinking water. […] The mice were treated with 2.5% dextran sodium sulfate (DSS) in their drinking water for 6 days. Treatments were continued with SG-14 or Gly2-GLP2 twice a day (b.i.d.) in the morning and evening (every 8 and 16 hr) with i.p. injections at 50 nmoles/kg. Fresh 2.5% DSS drinking water was prepared every 2 days.
Colon tissue was collected from mice in the DSS model described in this Example 7. Tissues were fixed in 10% formalin, processed for paraffin embedding and sectioned. Tissue sections were stained with Hematoxylin and Eosin and scored for pathology by a pathologist specializing in gastrointestinal disease. The scoring system used multiple pathology readouts including inflammation, edema, transmural inflammation, mucosal hyperplasia, dysplasia, loss of mucosal architecture, the extent of tissue affected, and the extent of tissue affected by the most severe pathology. Each readout was scored on a scale of 0-4 and a total score was generated by totaling all readout values for each treatment. […] The graph in FIG. 12A and images in […] represent data from the single experiment (n=10).

A further assay concerns muc2. The assay is described as follows: muc2 gene expression in epithelial cell monolayer (qRT-PCR). It counts as cell-based, human. The note with it: SG-14 1 pg/ml (40 nM) 6 hours prior to HK E. coli for 24 hours; p=0.87; FIG. 4. As to the method: Gene expression was measured in the epithelial cell monolayer from the apical chamber of the co-culture TEER assay described in Example 2. Total RNA was isolated from the epithelial cell monolayer, cDNA was synthesized. qRT-PCR was performed on cDNA generated from the HCT8 & HT29-MTX cells treated with SG-14 ([…]; 40 nM) for 6 hours prior to addition of HK E. coli for 24 hours. muc2 gene expression is graphed as mean fold change ±SEM. Statistical analysis was performed by a one-way ANOVA compared to HK E. coli and a Fishers LSD test was used for multiple comparisons.
For orientation: Real-time PCR tracks product formation cycle by cycle.

Assay [3] deals with HCT8 enterocyte and HT29-MTX goblet cell lines. In words: Oris Cell Migration assay (epithelial cell wound healing). The assay is classed as cell-based, human. The note with it: 48 hours; SG-14 1 μg/ml, EGF 30 ng/ml, staurosporine 100 nM; FIG. 5. The text has this: The 96 well Oris Cell Migration assay containing plugs preventing cell attachment in the center of each well was used according to the manufacturer's instructions (Platypus Technologies, Madison, WI). The migration assay plates were warmed to room temperature prior to use and plugs were removed from 100% confluence wells prior to cell addition. The HCT8 enterocyte and HT29-MTX goblet cell lines were used at a 9:1 ratio with a total of 5×10^4 total cells added per well (4.5×10^4 HCT8 cells and 0.5×10^4 HT29-MTX cells). Cells were incubated at 37° C.+5% CO2 for 24 hours. Plugs were then removed from all control and sample wells. Control wells included cells treated with the diluent vehicle as the blank, 30 ng/ml epidermal growth factor (EGF) as the positive control, and 100 nM staurosporine as the negative control, all diluted in cRPMI. Sample wells contained SG-14 protein at a concentration of 1 μg/ml diluted in cRPMI. 100% and 0% wells were cultured in cRPMI. […] The green fluorescent viability dye […] was added to all wells at a concentration of […] in PBS containing 0.9 mM CaCl2) and 0.5 mM MgCl2, incubated for 30 min at 37° C.+5% CO2, the dye was removed and cells were washed in PBS containing 0.9 mM CaCl2) and 0.5 mM MgCl2 and fluorescence was measured. […] Samples were normalized between 100% and 0% samples and values expressed as a percent growth.

B1: SG-14: Eubacterium eligens protein comprising SEQ ID NO:3; tested form expressed in E. coli, with exogenous GPLG at N-terminus and PHRD at C-terminus (protein)
chain: GCARNSTSTTTASGGETTITSAITKEDTDVTHADDAENYRVSITGDFTVTSDTSDGVTQSGSVYTITKAGEYTVTGLLSEGQLIVDAGNENEVTIVLNGTSITCSSGSPIYVKNASEVKIKSEENSFNEVIDNRNEATEDSSDDAGNAAIYATCDLKLVGKGALVVTGNYNNGIQSKDDLSIKNVIVKVTAVNNAVKVNDAVDIESGNIIAISAKGDGIKTSNSSISNKGNQKGIVTITSGNIDIYAACDGIDASYGADISGDGNLNIYTDTYSEYSEEVTSSGSSSGTSSGRDSSANKSASANTVSYVATSDTIANAPSGFGGGNMGSGNAPDMSNGNAPNMNGSSDRNKTGGNRPGMPGDFNESGNSSGQSYSTKGIKAESEINISGFTINICSTDDGIHANSDSGVLETGEDGKGTIVINGGSITISSGDDGMHADKQLDVNDGYINVVTSYEGLEAMTINLNGGKIYVYATDDGINACTGDGKTSPIVNVTGGYIDVTTTSGDTDGIDSNGNYVQTGGFVLVKGGSSSGNVSGSIDVDGTVTITGGTCVALGGVCETPVNSANAYVLGSVSFSSGSYSLKDSSGNEVISFTVDGSFSNGWICSDTLTTGSSYTLYRGADSIADWTQE
modifications: N-terminal GPLG and C-terminal PHRD
B1: the “Gross pathology score (0-5) vs vehicle treated DSS mice” value in assay [1] (50 nmoles/kg i.p. b.i.d., 2.5% DSS) was “significantly improved gross pathology”. The “Clinical scores vs DSS mice treated with Gly2-GLP2” value in assay [1] is on record as “No differences”. The “Colon pathology scores vs positive control Gly2-GLP2” value in assay [2] was “further reduced colon pathology scores significantly”. Besides, the “Colonic pathology (total histopathology score) vs DSS” value in assay [2] (H&E sections, readouts scored 0-4) was “significantly reduced colonic pathology”. The “muc2 gene expression vs HK E. coli without pre-treatment” value in the assay on muc2 is on record as “slight inhibition”. Further, the “Wound healing (percent growth)” value in assay [3] was “significant increase in growth”.

The values above are taken from US12371456B2, “Proteins for the treatment of epithelial barrier function disorders” (Genevive, Inc., priority 2017, dated 2025).
